In publication PMC6509358, “A Secreted RNA Binding Protein Forms RNA-Stabilizing Granules in the Honeybee Royal Jelly”:

Legend:
[1] = molecular target: major royal jelly protein 3 (MRJP-3) (Apis mellifera) (UniProt Q17060); test: SEC; MRJP-3 concentrated to 100 uM, 16/100 Superdex 200, eluted at 0.5 ml/min in RJ buffer (pH 4.0), no RNA; column calibrated with mass standards; monomer to higher-order oligomer
[2] = molecular target: major royal jelly protein 3 (MRJP-3) (Apis mellifera) (UniProt Q17060); test: MST; increasing unlabelled MRJP-3 added to fluorescently labelled MRJP-3 monomer; Monolith NT.115, 25 °C, RJ buffer with 0.01% Tween 20; apparent Kd of self-association; signal stable from approximately 40 uM added MRJP-3
MRJP-3 (jelly-purified) [3] = molecular target: T1, MRJP-3 (jelly-purified) (Apis mellifera, UniProt Q17060 21-544); test: EMSA; 42.8 uM protein; MST: RJ buffer (composition not in material) + 0.01% Tween 20, 25 C; EMSA: room temperature 0.5-3 h, 0.8% agarose, 1xTAE; conditions: protein: native
T1 sequence: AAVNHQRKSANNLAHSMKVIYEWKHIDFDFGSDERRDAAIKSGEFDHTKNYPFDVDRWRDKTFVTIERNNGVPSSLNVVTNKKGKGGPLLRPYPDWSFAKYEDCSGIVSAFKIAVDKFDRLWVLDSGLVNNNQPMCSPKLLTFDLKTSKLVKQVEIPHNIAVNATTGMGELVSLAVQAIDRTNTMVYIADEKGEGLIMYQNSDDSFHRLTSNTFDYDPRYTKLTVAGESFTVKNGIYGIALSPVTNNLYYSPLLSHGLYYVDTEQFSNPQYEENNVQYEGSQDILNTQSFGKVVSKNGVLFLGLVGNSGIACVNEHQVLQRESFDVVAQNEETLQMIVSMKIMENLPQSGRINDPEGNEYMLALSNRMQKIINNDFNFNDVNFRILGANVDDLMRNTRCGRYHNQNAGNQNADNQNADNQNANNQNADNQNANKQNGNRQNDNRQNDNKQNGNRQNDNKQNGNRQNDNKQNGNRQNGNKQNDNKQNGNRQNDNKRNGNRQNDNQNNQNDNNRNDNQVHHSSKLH

MRJP-3 (jelly-purified) [4] = molecular target: T1, MRJP-3 (jelly-purified); test: MST; first of three binding phases; MST: RJ buffer (composition not in material) + 0.01% Tween 20, 25 C; EMSA: room temperature 0.5-3 h, 0.8% agarose, 1xTAE; conditions: protein: native; label: Alexa Fluor 488 (Ulysis) for MST
MRJP-3 (jelly-purified) [5] = molecular target: T1, MRJP-3 (jelly-purified); test: MST; third of three binding phases; MST: RJ buffer (composition not in material) + 0.01% Tween 20, 25 C; EMSA: room temperature 0.5-3 h, 0.8% agarose, 1xTAE; conditions: protein: native; label: Alexa Fluor 488 (Ulysis) for MST
MRJP-3 (jelly-purified) [6] = molecular target: T1, MRJP-3 (jelly-purified); test: MST; second of three binding phases; MST: RJ buffer (composition not in material) + 0.01% Tween 20, 25 C; EMSA: room temperature 0.5-3 h, 0.8% agarose, 1xTAE; conditions: protein: native; label: Alexa Fluor 488 (Ulysis) for MST
MRJP-3 (jelly-purified) [7] = molecular target: T1, MRJP-3 (jelly-purified); test: EMSA; 42.8 uM protein, 0.27 uM RNA; MST: RJ buffer (composition not in material) + 0.01% Tween 20, 25 C; EMSA: room temperature 0.5-3 h, 0.8% agarose, 1xTAE; conditions: protein: native

major royal jelly protein 3 (MRJP-3) (from UniProt Q17060 21-544) (natural protein)
stoichiometry N (monomer units) [1]: 20
Kd [2]: 3500 nM

UGUGUUUAUAGCGGAUUU (ssRNA) [18 nt ssRNA]
binding result (MRJP-3 (jelly-purified) [3]): binds

UCAUAUGGGCUCACUGUUACUA (ssRNA) [22 nt ssRNA]
Kd (MRJP-3 (jelly-purified) [4]): 4 nM
Kd (MRJP-3 (jelly-purified) [5]): 25000 nM
Kd (MRJP-3 (jelly-purified) [6]): 300 nM

ACGCUUCUAACUUCAAGAUUUUACACAAUCAUAUGGGCUCACUGUUACUA (ssRNA) [50 nt ssRNA]
binding result (MRJP-3 (jelly-purified) [7]): binds
